Sequences and labels used below:
B1: EW28 (antibody, human IgG1, lambda, V domains shown)
VH: EVQLLESGGGLVQTGGSLRLSCAVSGFTFSDYAMSWVRQAPGKGLEWVSAISSGDGNTYYADSVKGRFTISRDNSKNTLYLQMNSLRAEDTAVYYCARYLGTTSDEPASYSNGMDVWGQGTLVTVSS
VL: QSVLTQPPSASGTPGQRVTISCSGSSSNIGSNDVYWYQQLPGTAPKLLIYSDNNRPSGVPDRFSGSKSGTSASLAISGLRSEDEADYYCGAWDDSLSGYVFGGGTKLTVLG
B2: HAL 7-12 (antibody, human IgG1, lambda, V domains shown)
VH: QLQLQESGGGLVQPGGSLRLSCAASGFTFSSYAMSWVRQAPGKGLEWVSAISGSGGSTYYADSVEGRFTISRDNSKNTLYLQMNSLRAEDTAVYYCAKERLEEPGFFDYWGQGTLVTVSS
VL: QSALTQPASVSGSPGQSITISCTGTSSDVGGYNYVSWYQQHPGKAPKLMIYEVSNRPSGVSNRFSGSKSGNTASLTISGLQAEDEAHYYCSSYTTDNAWVFGGGTQLTVLG
B3: HAL 8-7 (antibody, human IgG1, kappa, V domains shown)
VH: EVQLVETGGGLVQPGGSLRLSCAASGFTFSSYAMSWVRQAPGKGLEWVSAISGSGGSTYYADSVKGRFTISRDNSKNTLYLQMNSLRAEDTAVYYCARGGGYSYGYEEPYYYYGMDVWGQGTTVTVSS
VL: AIQLTQSPLSLSVSAGEKVTMSCKSSQSLLNSGNQKNDLAWYQQKPGQRPKLLIYGASTRESGVPDRFTGSGSGTDFTLTISSVQAEDLAVYYCQNDHSYPLTFGAGTKLEIKR
B4: HAL 7-7 (antibody, human IgG1, lambda, V domains shown)
VH: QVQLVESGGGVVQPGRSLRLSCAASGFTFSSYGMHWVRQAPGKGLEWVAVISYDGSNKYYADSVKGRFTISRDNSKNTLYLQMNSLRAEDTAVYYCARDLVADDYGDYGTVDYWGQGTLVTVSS
VL: QSVLTQPPSVSMAPGQTARITCGGNNIATKGVHWYQQKAGQAPVLVVYDDSGRPSGIPDRFSGSKSGNTATLTISRVEAGDEADYYCQLWDGRSDQVLFGGGTKLTVLG
B5: huAbF46-H4-A1 (IgG2 Fc) (antibody, V domains shown)
VH: EVQLVESGGGLVQPGGSLRLSCAASGFTFTDYYMSWVRQAPGKGLEWLGFIRNKANGYTTEYSASVKGRFTISRDNSKNTLYLQMNSLRAEDTAVYYCARDNWFAYWGQGTLVTVSS
VL: DIQMTQSPSSLSASVGDRVTITCKSSQSLLASGNQNNYLAWYQQKPGKAPKMLIIWASTRVSGVPSRFSGSGSGTDFTLTISSLQPEDFATYYCQQSYSRPYTFGQGTKVEIKR
notes: It was biotinylated in some assays; also called anti-c-Met antibody; biotinylated anti-c-Met antibody
B6: HAL 7-2 (antibody, human IgG1, lambda, V domains shown)
VH: QVQLVQSGAEVKKPGSSVKVSCKASGGTFSSYAISWVRQAPGQGLEWMGGIIPIFGTANYAQKFQGRVTITADESTSTAYMELSSLRSEDTAVYYCARDRNSYYEEPMYYFDYWGQGTLVTVSS
VL: QAGLTQPPSVSVSPGQTASITCSGDKLGDRYVFWYQQKPGQAPVLVVHDDSDRPSGIPERFSGSNSGDTATLTISRVEAGDEADYYCQVWDSVNDHPVFGGGTKLTVLG
B7: HAL 7-5 (antibody, human IgG1, lambda, V domains shown)
VH: B6 VH with S16A
VL: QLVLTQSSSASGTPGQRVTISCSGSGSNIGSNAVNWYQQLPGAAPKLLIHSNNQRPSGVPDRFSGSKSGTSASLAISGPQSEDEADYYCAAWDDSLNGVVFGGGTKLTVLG
B8: AbF46 (antibody, V domains shown)
VH: EVKLVESGGGLVQPGGSLRLSCATSGFTFTDYYMSWVRQPPGKALEWLGFIRNKANGYTTEYSASVKGRFTISRDNSQSILYLQMDTLRAEDSATYYCARDNWFAYWGQGTLVTVSA
VL: DILMTQSPSSLTVSAGEKVTMSCKSSQSLLASGNQNNYLAWHQQKPGRSPKMLIIWASTRVSGVPDRFIGSGSGTDFTLTINSVQAEDLAVYYCQQSYSAPLTFGAGTKLELK
notes: Mouse monoclonal antibody from a hybridoma; tested as hybridoma culture supernatant in the selection ELISA; also called mouse antibody AbF46; monoclonal antibody of hybridoma KCLRF-BP-00220
B9: EW02 (antibody, human IgG1, lambda, V domains shown)
VH: EVQLLESGGGLVQPGGSLRLSCAASGFTFSNYAMSWVRQAPGKGLEWVSSISSSGGNTYYADSVKGRFTISRDNSKNTLYLQMNSLGAEDTAVYYCAKYHSVFDYWGQGTLVTVSS
VL: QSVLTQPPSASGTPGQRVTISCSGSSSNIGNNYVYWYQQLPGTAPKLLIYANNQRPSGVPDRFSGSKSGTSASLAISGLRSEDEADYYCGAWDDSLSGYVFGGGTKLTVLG
notes: also called EW02 antibody
B10: EW01 (antibody, human IgG1, lambda, V domains shown)
VH: EVQLLESGGGLVQPGGSLRLSCAVSGFTFSDYYMSWVRQAPGKGLEWVSGIYSSSSNIYYADSVKGRFTISRDNSENTLYLQMNSLRAEDTAVYYCAKALGNQENEPTSYSNGMDVWGQGTLVTVSS
VL: QSVLTQPPSASGTPGQRVTISCSGSSSNIGNNSVYWYQQLPGTAPKLLIYSDSQRPSGVPDRFSGSKSGTSASLAISGLRSEDEADYYCGTWDYSLNGYVFGGGTKLTVLG
notes: also called anti-idiotype antibody EW01; EW01 antibody
B11: EW06 (antibody, human IgG1, lambda, V domains shown)
VH: EVQLLESGGGLVQPGGSLRLSCAASGFTFSGYDMSWVRQAPGKGLEWVSGISHGDGNIYYADSVKGRFTISRDNSKNTLYLQMNSLRAEDTAVYYCAKVGLLFVQEEPSYYNAMDVWGQGTLVTVSS
VL: B10 VL with S23T, N31S, S33N, Y35T, D52N, Q54H, E84G, Y94D
B12: EW10 (antibody, human IgG1, lambda, V domains shown)
VH: EVQLLESGGGLVQPGGSLRLSCAASGFTFSGYDMSWVRQAPGKGLEWVSGISYNGGSKYYADSVKGRFTISRDNSKNTLYLQMNSLRAEDTAVYYCAKYLLPVLEEPGYSADGMDVWGQGTLVTVSS
VL: B10 VL with S23T, N31S, S33Y, Y35S, Q38R, Q54N, G90A, Y94A, N97S, G98A
B13: EW03 (antibody, human IgG1, lambda, V domains shown)
VH: EVQLLESGGGLVQPGGSLRLSCAASGFTFSDYDMSWVRQAPGKGLEWVSLISYGGSNTYYADSVKGRFTISRDNSKNTLYLQMNSLRAEDTAVYYCAKFRSEFNENEPSSYYGMDVWGQGTLVTVSS
VL: B10 VL with S33D, Y35T, Q54N, Y94S, N97S, G98A
B14: EW26 (antibody, human IgG1, lambda, V domains shown)
VH: EVQLLESGGGLVQPGGSLRLSCAASGFTFSNYAMSWVRQAPGKGLEWVSAIYPGGGNTYYADSVKGRFTISRDNSKNTLYLQMNSLRAEDTAVYYCAKSLSTHSVDEPSSDNAMDVWGQGTLVTVSS
VL: B10 VL with S23T, N31S, Y35S, S51D, Q54N, G90A, T91S, G98A
B15: EW16 (antibody, human IgG1, lambda, V domains shown)
VH: EVQLLESGGGLVQPGGSLRLSCAASGFTFSDYYMSWVRLAPGKGLEWVSAISHSSGNTYYADSVKGRFTISRDNSKNTLYLQMNSLRAEDTAVYYCAKHLGAQSDEPDSSSNGMDVWGQGTLVTVSS
VL: B10 VL with S23T, S33D, Q54N, V59I, Y94D
B16: EW37 (antibody, human IgG1, lambda, V domains shown)
VH: B9 VH with A33S, G87R, K98R, Y99V, S101L, V102Y
VL: B10 VL with N31S, Y35N, Q54H, T91S, Y94D, N97S
B17: EW09 (antibody, human IgG1, lambda, V domains shown)
VH: EVQLLESGGGLVQPGGSLRLSCAASGFTFSDYDMSWVRQAPGKGLEWVSSISYGGGSIYYADSVKGRFTISRDNSKNTLYLQMNSLRAEDTAMYYCARDAAYFDYWGQGTLVTVSS
VL: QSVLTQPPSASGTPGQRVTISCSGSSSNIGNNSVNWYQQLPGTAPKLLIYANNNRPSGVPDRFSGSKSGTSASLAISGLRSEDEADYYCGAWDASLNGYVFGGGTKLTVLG

Test [1] has as its target B5. Put plainly: bridging ELISA: plate coated with anti-c-Met antibody, anti-idiotype antibody, biotinylated anti-c-Met antibody as detector. The procedure: (§1) The antibodies prepared in Example 1 above were produced in 293 F cells (invitrogen), purified and quantified to adjust their concentration, and then used for the following tests. The quantification of the purified antibodies was performed using a Nano-drop machine, and numerals reflecting A280/A260 absorption values were used. The quantification results were confirmed again through SDA-PAGE procedures. […] After blocking, the plates were washed with a PBST (0.05% Tween20 in PBS) and then treated with the anti-idiotype antibodies prepared in example 1 at 10-fold serial dilution concentrations (10 μg/ml, 1 μg/ml, 0.1 μg/ml, and 0.01 μg/ml) starting from 10 μg/ml, respectively to react at a room temperature for one hour. After the reaction was complete, the plates were washed again with a microplate washer (Biotek ELx405, PBST).
(§2) For color development, the plates were treated with TMB (3,3,5,5-tetramethylbenzidine) which is a HRP substrate, and absorption was measured at 450 nm.

Test [2] deals with T1, c-Met protein (358-MT/CF, RND systems) (UniProt P08581 25-932).
T1 construct: Bought reagent, known only by its catalogue number; also called antigen c-Met protein
T1 sequence (P08581 25-932 limits assumed): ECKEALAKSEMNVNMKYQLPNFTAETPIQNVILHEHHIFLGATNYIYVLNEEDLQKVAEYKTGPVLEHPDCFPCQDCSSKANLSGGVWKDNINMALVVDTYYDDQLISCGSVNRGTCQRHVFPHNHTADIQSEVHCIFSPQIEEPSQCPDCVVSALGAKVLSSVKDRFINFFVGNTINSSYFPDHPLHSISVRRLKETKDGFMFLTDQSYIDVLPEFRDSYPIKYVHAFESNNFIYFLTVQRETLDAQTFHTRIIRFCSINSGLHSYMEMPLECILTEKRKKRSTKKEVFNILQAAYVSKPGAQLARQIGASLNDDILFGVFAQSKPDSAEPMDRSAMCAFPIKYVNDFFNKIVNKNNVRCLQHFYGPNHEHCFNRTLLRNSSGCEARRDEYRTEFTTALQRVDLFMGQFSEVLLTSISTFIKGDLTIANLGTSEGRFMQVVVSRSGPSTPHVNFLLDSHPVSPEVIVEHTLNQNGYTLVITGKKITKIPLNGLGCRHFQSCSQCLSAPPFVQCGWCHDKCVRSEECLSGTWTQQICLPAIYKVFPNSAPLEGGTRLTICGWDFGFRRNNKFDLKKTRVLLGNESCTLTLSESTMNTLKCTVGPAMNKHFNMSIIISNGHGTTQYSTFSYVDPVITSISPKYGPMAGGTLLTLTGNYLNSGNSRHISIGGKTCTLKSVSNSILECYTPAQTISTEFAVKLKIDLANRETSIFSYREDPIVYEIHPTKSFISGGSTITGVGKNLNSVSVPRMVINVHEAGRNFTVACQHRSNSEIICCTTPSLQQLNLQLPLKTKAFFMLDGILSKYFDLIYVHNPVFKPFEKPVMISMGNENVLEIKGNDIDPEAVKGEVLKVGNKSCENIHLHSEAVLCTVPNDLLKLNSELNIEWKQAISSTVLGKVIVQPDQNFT
Kind of test: ELISA, 'Pre-existing Experiment (0.1% serum)': plate coated with c-Met protein; anti-c-Met antibody titrated 3-fold from 1 ug/ml in monkey serum diluted to 0.1%; Abs450.

The test “EW02” addresses B9. Kind of test: sandwich ELISA: capture EW02 0.25 ug/ml; anti-c-Met antibody titrated 3-fold from 1 (ug/ml per paragraph 273, axis prints no unit) in 10% human serum; detector EW01-biotin 0.25 ug/ml, streptavidin-HRP; absorbance at 450 nm. An excerpt:
Finally, the plates were washed with a washing solution (PBST (0.05% Tween20 in PBS)) to eliminate unreacted HRP and then, they were subject to color development using a TMB substrate to measure absorption at 450 nm.

The test “EW01” concerns the target B10. Put plainly: sandwich ELISA: plate coated with EW01 0.25 ug/ml; anti-c-Met antibody titrated 3-fold from 1 ug/ml in cynomolgus monkey serum (10% per paragraph 268; the sheet's title prints 0.1% serum); detector biotinylated EW01 0.25 ug/ml, streptavidin-HRP; Abs450. How it is done:
After the reaction of the detection antibody was over, the same washing procedures as above were carried out, and a HRP-streptavidin solution (BioLegend) was added thereto to react at a room temperature for one hour. After all the reactions were over, the plates were finally washed and treated with a TMB substrate for color development, and absorption was measured at 450 nm and analyzed.

In test [3] the target is T2, human c-Met/Fc fusion protein (R&D Systems) (human, UniProt P08581 25-932).
T2 construct: Bought; also called human c-Met/Fc protein; not shown: Fc part
T2 sequence (P08581 25-932 limits assumed): as above
Put plainly: ELISA, hybridoma culture on plates coated with human c-Met/Fc fusion protein. The procedure: The antibody that remained unbound was removed by washing.
The hybridoma cell culture obtained in Reference Example 1.1.2 was added in an amount of 50 μL to each well of the plates and incubated for 1 hour. The cells remaining unreacted were washed out with a sufficient amount of Tris-buffered saline and Tween 20 (TBST). Goat anti-mouse IgG-horseradish peroxidase (HRP) was added to the plates and incubated for 1 hour at room temperature. The plates were washed with a sufficient amount of TBST, followed by reacting the peroxidase with a substrate (OPD). Absorbance at 450 nm was measured on an ELISA reader.

Test [4] deals with B5. Kind of test: SPR (Biacore).
In test [5] the target is B5. Put plainly: bridging ELISA: plate coated with anti-c-Met antibody 1 ug/ml; anti-idiotype antibody at 0.01 to 10 (ug/ml per paragraph 258, axis prints no unit); detection with biotinylated anti-c-Met antibody 200 ng/ml and avidin-HRP; absorbance at 450 nm. How it is done:
as §1, §2

Numbering of substitutions follows the chain as printed.

With B1, the binding result in the test with huAbF46-H4-A1 (IgG2 Fc) [1] is recorded as “binds”.
Still for that read-out and setting: then B2, with “binds”; and B3, with “binds”; and B4, with “binds”.
Regarding B5, the results for the concentration for a half-maximal effect (EC50 (read off the curve)) (in test [2]; with EW01) were roughly 0.03 µg/mL and roughly 0.02 µg/mL, respectively. The binding result with EW02 is “binds”.
As for B6, the binding result with huAbF46-H4-A1 (IgG2 Fc) [1] is on record as “binds”.
The same measure, in the same setting: then B7, with “binds”.
B8: the binding result in test [3] is “binds”.
In the test with huAbF46-H4-A1 (IgG2 Fc) [4], B9 came in with a Kd of 38.4 nM, a dissociation rate constant (koff) of 0.0032 s⁻¹ and a kon of 85000 M⁻¹ s⁻¹.
As to B10, in the test with huAbF46-H4-A1 (IgG2 Fc) [5], the binding result was “binds”.
In the case of B11, the binding result with huAbF46-H4-A1 (IgG2 Fc) [1] is “binds”.
As for B12, in the test with huAbF46-H4-A1 (IgG2 Fc) [1], the binding result is listed as “binds”.
Same read-out and setting: then B13, with “binds”; and B14, with “binds”.
Still for that read-out and setting: then B15, with “binds”.
Still for that read-out and setting: then B16, with “binds”; and B17, with “binds”.
